Measured values from patent US20230071371A1 (Scripps Research, published 2023).
Bridges are numbered along the chain shown (N, C = ends). Where no end group is shown, it is not given here. [ ]: non-standard residue; d: D form. NMeR = CN[C@@H](CCCNC(=N)N)C(=O)O; hArg = N=C(N)NCCCC[C@H](N)C(=O)O; β3hR = N=C(N)NCCC[C@H](N)CC(=O)O; staple K20 = not defined here; staple K4 = not defined here; Nle = CCCC[C@H](N)C(=O)O; L1 = not defined here; L3 = not defined here; L4 = not defined here; L5 = not defined here; Aib = CC(C)(N)C(=O)O

T1: GPR10 (UniProt P49683 1-370, limits assumed)
T1 sequence (looked up): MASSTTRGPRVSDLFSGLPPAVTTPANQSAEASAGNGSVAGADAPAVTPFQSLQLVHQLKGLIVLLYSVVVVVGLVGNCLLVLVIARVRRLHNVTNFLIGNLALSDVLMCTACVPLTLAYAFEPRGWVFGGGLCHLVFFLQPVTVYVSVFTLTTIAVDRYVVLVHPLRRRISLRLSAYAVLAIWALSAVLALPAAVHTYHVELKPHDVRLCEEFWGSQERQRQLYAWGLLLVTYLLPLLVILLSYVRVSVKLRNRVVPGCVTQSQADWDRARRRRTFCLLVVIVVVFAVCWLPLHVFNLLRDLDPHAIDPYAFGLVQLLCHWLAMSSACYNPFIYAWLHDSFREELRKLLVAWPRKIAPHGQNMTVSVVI

B1: Conjugate 157 (peptide)
peptide: Y[Aib]EGTFTSDYSIYKDKQAA[Aib]KFKNWLKAGGPSSGAPPPS
modifications: linker 23-27 via staple K20; reading uncertain
B2: Conjugate 145 (peptide)
peptide: Y[Aib]EGTFTSDYSIYKDKQAA[Aib]KFKNWLKAGGPSSGAPPPS
modifications: linker 23-27 via staple K4; not fully specified; reading uncertain
B3: SEQ ID NO 94 (peptide)
peptide: SRAHQHSMETRTPDICPAWYTGCGIRPVGRF-NH2
modifications: cysteine pairing not given here
B4: Conjugate 230 (peptide)
peptide: SRAHQHSMETRTPDICPAWYTGCGIRPVGRF-NH2
modifications: linker 16-23 via L1; reading uncertain
B5: SEQ ID NO 90 (peptide)
peptide: SRAHQCSMETRTCDINPAWYTGRGIRPVGRF-NH2
modifications: cysteine pairing not given here
B6: Conjugate 236 (peptide)
peptide: SRAHQCSMETRTCDINPAWYTGRGIRPVGRF-NH2
modifications: linker 6-13 via L3; reading uncertain
B7: SEQ ID NO 95 (peptide)
peptide: SRAHQHSMETRTPDINPCWYTGRGCRPVGRF-NH2
modifications: cysteine pairing not given here
B8: Conjugate 238 (peptide)
peptide: SRAHQCSMETRTCDINPAWYTGRGIRPVGRF-NH2
modifications: linker 6-13 via L5; reading uncertain
B9: Conjugate 237 (peptide)
peptide: SRAHQCSMETRTCDINPAWYTGRGIRPVGRF-NH2
modifications: linker 6-13 via L4; reading uncertain
B10: Conjugate 245 (peptide)
peptide: SRAHQHSMETRTPDICPAWYTGCGIRPVGRF-NH2
modifications: linker 16-23 via L3; reading uncertain
B11: Conjugate 247 (peptide)
peptide: SRAHQHSMETRTPDICPAWYTGCGIRPVGRF-NH2
modifications: linker 16-23 via L5; reading uncertain
B12: Conjugate 232 (peptide)
peptide: SRAHQHSMETRTPDINPAWCTGRGIRCVGRF-NH2
modifications: linker 20-27 via L1; reading uncertain
B13: Conjugate 244 (peptide)
peptide: SRAHQHSMETRTPDCNPAWYTCRGIRPVGRF-NH2
modifications: linker 15-22 via L5; reading uncertain
B14: Conjugate 226 (peptide)
peptide: SRAHQCSMETRTCDINPAWYTGRGIRPVGRF-NH2
modifications: linker 6-13 via L1; reading uncertain
B15: SEQ ID NO 107 (peptide)
peptide: SRAHQHSMETRTPDINPAWYTGRGIRPVGRF-NH2
B16: Conjugate 243 (peptide)
peptide: SRAHQHSMETRTPDCNPAWYTCRGIRPVGRF-NH2
modifications: linker 15-22 via L4; reading uncertain
B17: Conjugate 249 (peptide)
peptide: SRAHQHSMETRTPDINPCWYTGRGCRPVGRF-NH2
modifications: linker 18-25 via L4; reading uncertain
B18: Conjugate 250 (peptide)
peptide: SRAHQHSMETRTPDINPCWYTGRGCRPVGRF-NH2
modifications: linker 18-25 via L5; reading uncertain
B19: SEQ ID NO 96 (peptide)
peptide: SRAHQHSMETRTPDINPAWCTGRGIRCVGRF-NH2
modifications: cysteine pairing not given here
B20: Conjugate 248 (peptide)
peptide: SRAHQHSMETRTPDINPCWYTGRGCRPVGRF-NH2
modifications: linker 18-25 via L3; reading uncertain
B21: Conjugate 231 (peptide)
peptide: SRAHQHSMETRTPDINPCWYTGRGCRPVGRF-NH2
modifications: linker 18-25 via L1; reading uncertain
B22: Conjugate 246 (peptide)
peptide: SRAHQHSMETRTPDICPAWYTGCGIRPVGRF-NH2
modifications: linker 16-23 via L4; reading uncertain
B23: Conjugate 256 (peptide)
peptide: SRAHQCS[Nle]ETRTCDINPAWYTG[β3hR]GIRPVGRF-NH2
modifications: linker 6-13 via L3; reading uncertain
B24: SEQ ID NO 97 (peptide)
peptide: SRAHQCS[Nle]ETRTCDINPAWYTG[hArg]GIRPVGRF-NH2
modifications: cysteine pairing not given here
B25: Conjugate 262 (peptide)
peptide: SRAHQCS[Nle]ETRTCDINPAWYTGRGIRPVG[NMeR]F-NH2
modifications: linker 6-13 via L4; reading uncertain
B26: Conjugate 264 (peptide)
peptide: SRAHQCS[Nle]ETRTCDINPAWYTG[β3hR]GIRPVGRF-NH2
modifications: linker 6-13 via L5; reading uncertain
B27: Conjugate 260 (peptide)
peptide: SRAHQCS[Nle]ETRTCDINPAWYTG[β3hR]GIRPVGRF-NH2
modifications: linker 6-13 via L4; reading uncertain
B28: Conjugate 265 (peptide)
peptide: SRAHQCS[Nle]ETRTCDINPAWYTG[NMeR]GIRPVGRF-NH2
modifications: linker 6-13 via L5; reading uncertain
B29: Conjugate 258 (peptide)
peptide: SRAHQCS[Nle]ETRTCDINPAWYTGRGIRPVG[NMeR]F-NH2
modifications: linker 6-13 via L3; reading uncertain
B30: SEQ ID NO 99 (peptide)
peptide: SRAHQCS[Nle]ETRTCDINPAWYTG[NMeR]GIRPVGRF-NH2
modifications: cysteine pairing not given here
B31: Conjugate 253 (peptide)
peptide: SRAHQCS[Nle]ETRTCDINPAWYTG[NMeR]GIRPVGRF-NH2
modifications: linker 6-13 via L1; reading uncertain
B32: Conjugate 254 (peptide)
peptide: SRAHQCS[Nle]ETRTCDINPAWYTGRGIRPVG[NMeR]F-NH2
modifications: linker 6-13 via L1; reading uncertain
B33: Conjugate 261 (peptide)
peptide: SRAHQCS[Nle]ETRTCDINPAWYTG[NMeR]GIRPVGRF-NH2
modifications: linker 6-13 via L4; reading uncertain
B34: Conjugate 257 (peptide)
peptide: SRAHQCS[Nle]ETRTCDINPAWYTG[NMeR]GIRPVGRF-NH2
modifications: linker 6-13 via L3; reading uncertain
B35: SEQ ID NO 98 (peptide)
peptide: SRAHQCS[Nle]ETRTCDINPAWYTG[β3hR]GIRPVGRF-NH2
modifications: cysteine pairing not given here
B36: SEQ ID NO 100 (peptide)
peptide: SRAHQCS[Nle]ETRTCDINPAWYTGRGIRPVG[hArg]F-NH2
modifications: cysteine pairing not given here
B37: SEQ ID NO 101 (peptide)
peptide: SRAHQCS[Nle]ETRTCDINPAWYTGRGIRPVG[β3hR]F-NH2
modifications: cysteine pairing not given here
B38: Conjugate 252 (peptide)
peptide: SRAHQCS[Nle]ETRTCDINPAWYTG[β3hR]GIRPVGRF-NH2
modifications: linker 6-13 via L1; reading uncertain
B39: Conjugate 266 (peptide)
peptide: SRAHQCS[Nle]ETRTCDINPAWYTGRGIRPVG[NMeR]F-NH2
modifications: linker 6-13 via L5; reading uncertain
B40: SEQ ID NO 102 (peptide)
peptide: SRAHQCS[Nle]ETRTCDINPAWYTGRGIRPVG[NMeR]F-NH2
modifications: cysteine pairing not given here

target: human GLP-1R (human, UniProt P43220 24-463); assay: cell-based or functional assay

| Binder | EC50 cAMP 0% FBS [nM] |
| --- | --- |
| B1 | 16.4 |
| B2 | 61.4 |

target: T1, GPR10; assay: cell-based or functional assay

| Binder | GPR10 EC50 [nM] |
| --- | --- |
| B3 | 70 |
| B4 | 29 |
| B5 | 29 |
| B6 | 13 |
| B7 | 33 |
| B8 | 260 |
| B9 | 80 |
| B10 | 23 |
| B11 | 2800 |
| B12 | 130 |
| B13 | 230 |
| B14 | 20 |
| B15 | 12 |
| B16 | 80 |
| B17 | > 1000 |
| B18 | > 1000 |
| B19 | 920 |
| B20 | 7.5 |
| B21 | 18 |
| B22 | 360 |

target: T1, GPR10; assay: cell-based or functional assay; remark: another data set of the same source

| Binder | GPR10 EC50 [nM] |
| --- | --- |
| B23 | 5.1 |
| B24 | 17 |
| B25 | 280 |
| B26 | 81 |
| B27 | 60 |
| B28 | 160 |
| B5 | 29 |
| B29 | 10 |
| B6 | 13 |
| B30 | 44 |
| B8 | 260 |
| B9 | 80 |
| B31 | 34 |
| B32 | 100 |
| B33 | 120 |
| B14 | 20 |
| B34 | 8.8 |
| B15 | 12 |
| B35 | 13 |
| B36 | > 200 |
| B37 | > 200 |
| B38 | 16 |
| B39 | 1100 |
| B40 | 100 |
